Source: the DeepSol protein solubility set

Test: soluble on expression in E. coli; label from the status in PepcDB or PDB records

Sequence | soluble on expression in E. coli
MGSDKIHHHHHHMNILFVSDLGSLGGGETSLFNLINEFASDNKKYNINNFLMCKTEGKLVDKCRGINVPCKVFDFKAAFKSFKFREISKAIKVIKEFLYSNNIDVIQCNEWSSAVLFSIISKVSSKNCKIIWICHGQWYKFNLIKRVLVNSLINRIISVSESVQNNLIINKLNKRKLLKQNLGIDLDRFRLGNGDKLREELHIQKEDKVLGVIARFQPIKGQKLVIEAARDIVEAGYKNYKFLLVGDSIFNNPKDSMYKNEVIEMIKEYKLQKNVLILGERNDVPDILALLDALIVPSINESFGMVVVEAFAAGCPVISTPCDGPMEIIKNGYSGVIINERNSENLKDAITDLMKEETDLEMMKINSMKESKKYDISNIAQFYCKQYALLCK | not soluble
MAHHHHHHMKEGDFEGAEERFIKAIEEIEKFPEGKVDPKLVEQMRELLEDAREMKDGRFKEIQEFIQEQFAVNETERLPTAHEFYGDVDEQQHPFVSRLPNDGECSALSMPQSNTNPVQWSEHSNSMSLSLFPSQVNGRSSEASNSQPVQHVVARRKPKPLQKQKALEVESSGNVSTGSDMKRFRAES | soluble
MFSIIIPIYNSENYLRYSIESVLNQSIGFKENIELILIDDGSVDSSPQICESFKNLYPNNIKIMKIENSGPSAARNCGLSNVSERSKFIGFLDSDDAFSQNALQSVYDFFCDSEHVNIAVLPVYYTGEKEGGHKLNNRFEKGTRVINILNDYKAIHFYIGGTFYRRHTLTSTVLFDESIKFWEDAIFFNQLLLKEKRYGAVAEGKYFYRKRKEQDSLVDRSWFNKKRYTYLLNECYMTLLMDSFNKYDIVLPYLQFLIVYHIKLFLYPNYRDVYKSVLDQQEQRVFVDDFIKVLKFIDPQFIKEQDMPMYYKEFMFHLLKENTEALENIKKERVLHSSCTVTSAKIKGLRLELTGHFINQYYEMKENDRIYIKYFKRLKKCKRKELKKTIEVWGYKLRDFRYAGFVVEIPIWAFAFDFVLKTPNDSLELNHVNIFKSLLTRVFKKRLEHHHHHH | soluble
MSLTTLNIGLILPDVLGTYGDDGNALVLRQRARMRGINAEIQRVTLDDAVPSTLDLYCLGGGEDTAQILATEHLTKDGGLQTAAAAGRPIFAVCAGLQVLGDSFRAAGRVIDGLGLIDATTVSLQKRAIGEVETTPTRAGFTAELTERLTGFENHMGATLLGPDAEPLGRVVRGEGNTDVWAASENTDDQRQQFAEGAVQGSIIATYMHGPALARNPQLADLMLAKAMGVALKEGHHHHHH | not soluble
MEYEWKPDEQGLQQILQLLKESQSPDTTIQRTVQQKLEQLNQYPDFNNYLIFVLTKLKSEDEPTRSLSGLILKNNVKAHFQNFPNGVTDFIKSECLNNIGDSSPLIRATVGILITTIASKGELQNWPDLLPKLCSLLDSEDYNTCEGAFGALQKICEDSAEILDSDVLDRPLNIMIPKFLQFFKHSSPKIRSHAVACVNQFIISRTQALMLHIDSFTENLFALAGDEEPEVRKNVCRALVMLLEVRMDRLLPHMHNIVEYMLQRTQDQDENVALEACEFWLTLAEQPICKDVLVRHLPKLIPVLVNGMKYSDIDIILLKGDVEEDETIPDSEQDIRPRFHRSRTVAQQHDEDGIEEEDDDDDEIDDDDTISDWNLRKCSAAALDVLANVYRDELLPHILPLLKELLFHHEWVVKESGILVLGAIAEGCMQGMIPYLPELIPHLIQCLSDKKALVRSITCWTLSRYAHWVVSQPPDTYLKPLMTELLKRILDSNKRVQEAACSAFATLEEEACTELVPYLAYILDTLVFAFSKYQHKNLLILYDAIGTLADSVGHHLNKPEYIQMLMPPLIQKWNMLKDEDKDLFPLLECLSSVATALQSGFLPYCEPVYQRCVNLVQKTLAQAMLNNAQPDQYEAPDKDFMIVALDLLSGLAEGLGGNIEQLVARSNILTLMYQCMQDKMPEVRQSSFALLGDLTKACFQHVKPCIADFMPILGTNLNPEFISVCNNATWAIGEISIQMGIEMQPYIPMVLHQLVEIINRPNTPKTLLENTAITIGRLGYVCPQEVAPMLQQFIRPWCTSLRNIRDNEEKDSAFRGICTMISVNPSGVIQDFIFFCDAVASWINPKDDLRDMFCKILHGFKNQVGDENWRRFSDQFPLPLKERLAAFYGV | soluble
MDGCMPGISATTLLKQQNIPESFKFYFKRRFAPLVTDGPHLNELVRPRLKIAIVTETWPPEINGVAMSLLQLCKGLQEQGHKILLVRPQQKRECYEFSPHKECLVHAQRIPKYPELQFGWPQYLKVAKAFEDFTPDVVHVVTEGPLGLTALYAARAKQIPVSSGFHSPFQDFSRFFDLAFLLKPIQGYLRWFHNHTQITCVPSQDTEKALRAFGVTCPLSIVGRGVDPKFFSPDFRNEALRERWKAASDTVVMLYVGRLSPEKEIHILIQNYAAMRRVEPRNVKLVIVGSGPDRARLEALDETQEVIFMGSLSGKNLAEAYASADVFVFASQVETFGNVVLEAMASGLPVVAYDYACAHQYIQHGVTGWLSPLGQPATFIQAMRQLSGVKQLRQMGQRARQCVEHDGWQYPVQQMEQALYRVVKEPYMKLEHHHHHH | not soluble
MGSDKIHHHHHHMMADERIEVLKDILLELHHGASAESVQERFNQHFKGVSAIEISMMEHELMNADTGITFEDVMGLCNVHANLFKGAIADVDVPDAEQEGHPVKVFKDENLALRAAIMRIRRIIENYTKPENEDFRQEILKGLKHQFDLLGQFYHHYTRKEKLFFPIMERYGHDSPPKVMWGVDDDIRDLFKDAKATLAKLPDGSIEELSQKFEAFAKEFEEMIFKEEAILLMILLESFTQDDWLQIASESDAYGYAILKPTEKWIPHRESFDNEADADTSDNQLADALNQVQDANSPEGTNTKVINTPEGQFTITFKPKEKEAAADRTTQQPFGNGYLSVEQANLILNHLPLEITFVNKDDIFQYYNDSVPAAEMVFKRTPSQVGRNVELCHPPKVLDKVKKVFELLRNGQRDKVNMWFQSERLGKFVYVTYAAVRDQAGDFQGVLEYVQDIKPFFELDSEFNRDI | not soluble
MGSDKIHHHHHHKETGNMPEIKKQPIASAVPDFNADSAYAYVANQVAFGPRVPNTAAHKACGDYLASELKRFGAKVYQQEAILTAYDGTKLEARNIIGSFDPENSKRVLLFAHWDSRPYSDHDPDPSKHRTPLDGADDGGSGVGALLEIARQIGQKAPGIGIDIIFFDAEDYGTPEFVTDYTPDSWCLGTQFWAKNPHVPNYTAEYGILLDMVGGKNATFFKEQQSLRAAAPIVEMVWSAARDLGYGKYFINAAGGAITDDHQYVISGRNIPSIDIINYDPESKTGFASYWHTQKDNMENIDRETLKAAGQTVLEVIYNR | not soluble
KKLDLLITGVGGQGAILASDIIGKAAVISGIPIRAAETHGMAQRGGSVVNHIRLGSDLGSMIPKKGADIMLALEPMEAVRYLDFLKDGGVIIVNTQSIIPVTVTSGLSKYPEVQEILDALSEKYVVKAFNADELAHEAGSRLAMNVAMVGAVSGYLPISKEVLLESVKVLVPKKTIEINIRAFEMGREEVEE | not soluble
MGSDKIHHHHHHMNKPCIISVAITGSLPRKKDNPAVPITVSEQVESTQAAFEAGATLVHLHVRNDDETPTSNPDRFALVLEGIRKHAPGMITQVSTGGRSGAGNERGAMLSLRPDMASLATGSVNFPTRVYDNPPELVDWLAAEMKTYGIKPEVEAFDLSMIFQAAAMQAAGAIVGPLHIQFVMGIKNAMPVDREVLEFYVQTLKRLSPDATWTGAGIGRHQLTMARWSLELGGHCRTGLEDNVRLDKNTLAPSNAALVRQVAELCEEYGRPVATAAQAREIMSLG | not soluble
DLSKNSDVAYLWCSSNKLTSLNLSGVKGLSVLVCHSNQIAGEEMTKVVNALPTLSPGAGAQSKFVVVDLKDTDEKNICTVKDVEKAKSKNWRVFDFNGDSDNMLPYEGSPTSNLAVDAPTVRIYPNPVGRYALVEIPESLLGQEAALYDMNGVKVYSFAVESLRQNIDLTHLPDGTYFFRLDNYTTKLIKQ | not soluble
MSGAVPETPYHQRWLAFPDAVSSYRPLESRLAGTSRATADNRTPCTGRLGTPRVFLMATDDVSKAYSSPTFDAEALLGTVISAEDPDRVLIEPWATGVDGVILDVGSGTGRWTGHLASLGHQIEGLEPATRLVELARQTHPSVTFHHGTITDLSDSPKRWAGLLAWYSLIHMGPGELPDALVALRMAVEDGGGLLMSFFSGPSLEPMYHPVATAYRWPLPELAQALETAGFQVTSSHWDPRFPHAYLTAEASKQNLALEHHHHHH | not soluble
MRQKTIREISVAWKEYKQPYVKQSTMAAYVLILENHILPNFGESDTLHEQAVQDFVLRKIENGLSVKSVKDILIVLKMVMKFGVKNEWMDYQEWDIKYPSSSTTKELEVLSVANHKKILNHIQNHFSFTGLGIYISLCTGLRIGEVCALKWSDINVSEGTITVNRTIERIYIIDGTKKHTELVINTPKTQNSCREIPMTKELLAMVKPLKKVVNEDFYVLTNDEYPTEPRTYRNYYGKLM | not soluble
